Measurements from patent US6316596A, “Receptor for peptide hormones involving in energy homeostasis” (The Rockefeller University, priority 1998, dated 2001).
Entries after “also recorded” stand apart in the source; their conditions may differ.

Assays:
[1] = tested on: CHL cells transfected with the vector alone; assay: binding of 125I-VIP to CHL cells transfected with vector alone; parameters: species or system Chinese hamster; conditions: data not shown
Procedure: Stable transformants were selected in the presence of G418 (0.8 mg/ml, GIBCO/BRL, Gaithersburg, Md.). […] Each peptide concentration prepared in Hfank's balanced salt solution containing 20 mM HEPES, pH 7.4, 0.5% BSA and 0.1 mM phenylmethylsulfonyl-fluoride (PMSF) was added in triplicates to intact cells. Following the incubation, the cells were washed two times with ice-cold PBS, lysed with 1 N NaOH, and radioactivity measured in gamma counter. […] The maximum specific binding was 5%. The variation among triplicate values was 10%.

[2] = target: T1, recombinant human PACAP/VIP R-2 receptor (Homo sapiens, UniProt P41587); assay: competitive binding with 125I-VIP, CHL cells expressing recombinant receptor
T1 construct: expressed in transfected cells
T1 sequence (P41587 24-438 R412H/G424A): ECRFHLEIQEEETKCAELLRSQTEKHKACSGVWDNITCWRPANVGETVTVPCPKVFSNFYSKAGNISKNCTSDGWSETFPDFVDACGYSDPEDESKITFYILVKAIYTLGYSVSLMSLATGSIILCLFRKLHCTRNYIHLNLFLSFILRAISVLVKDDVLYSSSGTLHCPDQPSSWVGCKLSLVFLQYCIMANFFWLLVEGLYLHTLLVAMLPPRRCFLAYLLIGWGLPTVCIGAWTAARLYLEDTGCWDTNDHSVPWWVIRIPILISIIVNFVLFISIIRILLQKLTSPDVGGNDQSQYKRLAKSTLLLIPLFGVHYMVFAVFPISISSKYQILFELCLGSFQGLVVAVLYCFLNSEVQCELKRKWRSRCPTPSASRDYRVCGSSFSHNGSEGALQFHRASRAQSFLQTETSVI
Procedure: Data points represent an average of two separate experiments (n=6). The variation among individual points was 10% (see Materials and Methods).
Each peptide concentration prepared in Hfank's balanced salt solution containing 20 mM HEPES, pH 7.4, 0.5% BSA and 0.1 mM phenylmethylsulfonyl-fluoride (PMSF) was added in triplicates to intact cells. Following the incubation, the cells were washed two times with ice-cold PBS, lysed with 1 N NaOH, and radioactivity measured in gamma counter. […] The variation among triplicate values was 10%.

[3] = target: T1, recombinant human PACAP/VIP R-2 receptor; assay: stimulation of intracellular cAMP in cells expressing recombinant receptor; type: cell-based; conditions: FIG. 2B; for stimulation of intracellular cAMP formation (in words) / peptide concentration at maximum stimulation of cAMP levels: CHL cells; for stimulation of intracellular cAMP formation (in words): 45 minutes at 37° C., secretin, glucagon, GLP-I and GLP-II at μM concentrations
Description: Data points represent an average of two separate determinations (n=6), except for secretin (n=3) (see Materials and Methods). The variation among individual points was 5%.

[4] = tested on: CHL cells transfected with vector alone; assay: intracellular cAMP in CHL cells transfected with vector alone; type: cell-based, Chinese hamster; conditions: 1.1 μM; data not shown
Procedure: Cells were grown in 24-well plates to about 50% confluence. They were washed twice with the incubation buffer (Macy's 5A pH 7.4, containing 20 mM HEPES, 0.5% BSA and 0.5 mM IBMX) and incubated with different concentration of synthetic peptides added in triplicates (μM-pM) for 45 minutes at 37° C. In each experiment forskolin (10 μM, Sigma, St. Louis, Mo.) was added as a positive control. After removal of the medium, cells were washed twice with PBS and lysed with 95% ethanol. The suspension was centrifuged at 13,000 rpm for 3 minutes, and supernatants were taken to dryness in a speed vacuum. The contents were reconstituted in 0.05 M acetate buffer (0.5 ml) and cAMP levels measured using the cAMP Biotrak SPA system (Amersham, Arlington Heights, Ill.). The variation among triplicate values was 5%. The data shown in FIG. 2B are average of two separate incubations (n=6), except for secretin (n=3).

insulin secretion = conditions: Yada et al., 1994; cited from earlier work
[5] = 125I-VIP 44 pM, whole CHL cells

Substance | displacement of 125I-VIP binding (in words) [2, 5] | stimulation of intracellular cAMP formation (in words) [3] | other results
125I-VIP: radioiodinated VIP (2000 Ci/mmol, Amersham) |  |  | binding of 125I-VIP to vector-transfected cells [1]: did not bind
PACAP-27 | complete displacement of ^125 I-VIP binding to the recombinant PACAP/VIP R-2 was not obtainable at high PACAP-27 concentration | stimulated intracellular cAMP formation in a dose dependent manner | IC50 ([2]; read-out: ID50, displacement of 125I-VIP binding, 125I-VIP 44 pM, whole CHL cells, 15-18 hour at 4° C., VIP and PACAP-27 values estimated (incomplete displacement)): 37 nM; peptide concentration at maximum stimulation of cAMP levels [3]: 100 nM
PACAP-38: 38-amino acid form of pituitary adenylate cyclase activating polypeptide; synthetic, purchased from Peninsula | displaced in a dose dependent manner | stimulated intracellular cAMP formation in a dose dependent manner | relative affinity for the receptor (in words) ([2]; competitive binding, whole cells): higher affinity than PACAP-27; also recorded: slightly higher affinity for PACAP-38 than for VIP; cAMP response at supraphysiological concentration ([3]; 1 μM PACAP-38): sharp drop to baseline levels; peptide concentration at maximum stimulation of cAMP levels [3]: 100 nM; change of intracellular cAMP in vector-transfected cells [4]: No change of intracellular cAMP was detected; stimulation of insulin secretion (insulin secretion): ability to stimulate insulin secretion
glucagon-like peptide-I [GLP-I] | did not displace this binding | did not show any stimulation | 
glucagon-like peptide-II [GLP-II] | did not displace this binding | did not show any stimulation | 
glucagon: glucagon | did not displace this binding | did not show any stimulation | 
secretin: synthetic secretin purchased from Peninsula; high sequence homology to PACAP and VIP |  | Some increase of intracellular cAMP levels | high concentration at which 125I-VIP binding was displaced ([2]; 125I-VIP, FIG. 2A): 3.8 µM
